B1: Mycobacterium tuberculosis DnaK T175A (catalytically dead mutant), full-length (natural protein)
chain: not shown

Experiments:
native gel or EMSA = target: the molecule itself; experiment: native gel or EMSA
[1] = target: B1; experiment: native gel or EMSA

Row | Binder | binding result (native gel or EMSA) | binding result [1]
1 | B1 | binds | –
2 | Mycobacterium tuberculosis GrpE (natural protein) MTDGNQKPDGNSGEQVTVTDKRRIDPETGEVRHVPPGDMPGGTAAADAAHTEDKVAELTADLQRVQADFANYRKRALRDQQAAADRAKASVVSQLLGVLDDLERARKHGDLESGPLKSVADKLDSALTGLGLVAFGAEGEDFDPVLHEAVQHEGDGGQGSKPVIGTVMRQGYQLGEQVLRHALVGVVDTVVVDAAELESVDDGTAVADTAENDQADQGNSADTSGEQAESEPSGS | – | binds

— paper PMC9124243 (Cell chemical biology, 2021)
